Patent US20100120068A1 (PHARMACOME, published 2010)

Target: T1, human α1A-adrenergic receptor (human, UniProt P35348 1-466)
T1 construct: Expressed in CHO-K1 cells either alone (α1A cells) or together with CRELD1α (α1L cells); also called ADRA1A; α1A-subtype
T1 sequence: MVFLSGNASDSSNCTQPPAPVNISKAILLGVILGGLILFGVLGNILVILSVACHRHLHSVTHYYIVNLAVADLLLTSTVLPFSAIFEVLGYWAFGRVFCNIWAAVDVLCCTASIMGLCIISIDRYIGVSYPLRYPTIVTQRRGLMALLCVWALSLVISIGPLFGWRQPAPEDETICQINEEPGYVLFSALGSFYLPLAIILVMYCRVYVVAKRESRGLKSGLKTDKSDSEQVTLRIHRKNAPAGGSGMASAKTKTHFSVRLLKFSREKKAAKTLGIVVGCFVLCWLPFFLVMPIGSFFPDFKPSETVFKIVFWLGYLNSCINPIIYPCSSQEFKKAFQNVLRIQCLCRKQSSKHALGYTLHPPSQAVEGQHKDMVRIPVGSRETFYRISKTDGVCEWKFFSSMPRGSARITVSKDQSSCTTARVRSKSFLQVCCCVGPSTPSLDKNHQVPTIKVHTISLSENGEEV
Experiment: method not described; told in the description only

- binding result: binds
B1: CRELD (cysteine-rich with EGF-like domains) 1α protein (other)
chain: QPSPPPQSSPPPQPHPCHTCRGLVDSFNKGLERTIRDNFGGGNTAWEEENLSKYKDSETRLVEVLEGVCSKSDFECHRLLELSEELVESWWFHKQQEAPDLFQWLCSDSLKLCCPAGTFGPSCLPCPGGTERPCGGYGQCEGEGTRGGSGHCDCQAGYGGEACGQCGLGYFEAERNASHLVCSACFGPCARCSGPEESNCLQCKKGWALHHLKCVDIDECGTEGANCGADQFCVNTEGSYECRDCAKACLGCMGAGPGRCKKCSPGYQQVGSKCLDVDECETEVCPGENKQCENTEGGYRCICAEGYKQMEGICVKEQIPESAGFFSEMTEDELVVLQQMFFGIIICALATLAAKGDLVFTAIFIGAVAAMTGYWLSERSDRVLEGFIKGR
notes: The whole coding region was used; No signal peptide limits are stated; also called CRELD1α; CREDL1α
